Source: patent publication US20110086767A1, “MUTANTS OF GLYCOSIDE HYDROLASES AND USES THEREOF FOR SYNTHESIZING COMPLEX OLIGOSACCHARIDES AND DISACCHARIDE INTERMEDIATES” (Institut Pasteur, priority 2008, published 2011)

Tests used:
[1] = Kinetics of F290K and ASNPwt in the presence of acceptor α-D-GlcpNAc-OAll; type: biochemical
Method: Enzyme assays were carried out in a total volume of 2 mL containing pure enzyme (0.115 mg and 0.106 mg when using ASNPwt and F290K, respectively). Catalytic efficiency (Eff=kcat/KM) of ASNPwt and F290K variant was determined with both sucrose (D=Donor) and α-D-GlcpNAc-OAll (A=Acceptor) as variable substrates. For the determination of the catalytic efficiency for D, A was held constant at 250 mM and D was varied between 0 and 600 mM. For the determination of the catalytic efficiency for A, D was held constant at 250 mM and A was varied between 0 and 250 mM. Experiments were performed until A and D solubility limits were reached. For each experiment, the reaction velocity corresponding to the acceptor glucosylation was determined by the formation of α-D-Glcp-(1→4)-α-D-GlcpNAc-OAll (called Vi(Dp2)), corresponding to the kinetics of the reaction of interest.
Initial velocities were fitted to the Michaelis-Menten equation using Sigma-Plot. As saturation was not achieved with the mutant, efficiency was calculated by linear regression analysis of the velocity versus substrate concentration plot. Aliquots (200 μL) were removed between 0 and 60 min (at which time product formation was still linear with respect to time), heated at 95° C. for 5 min and centrifuged at 18 000 g for 5 min. The final mixtures were filtered on a 0.22 um membrane and analyzed using HPLC material previously described. […]

[2] = HPLC screening of double-mutant libraries for variants able to glucosylate D-GlcpNAc; type: biochemical; details: α-D-Glcp-(1→4)-α-D-GlcpNAc (ED) from sucrose and D-GlcpNAc, microplate format

B1: F290K: single mutant F290K of N. polysaccharea amylosucrase 1G5A (protein)
chain: SPNSQYLKTRILDIYTPEQRAGIEKSEDWRQFSRRMDTHFPKLMNELDSVYGNNEALLPMLEMLLAQAWQSYSQRNSSLKDIDIARENNPDWILSNKQVGGVCYVDLFAGDLKGLKDKIPYFQELGLTYLHLMPLFKCPEGKSDGGYAVSSYRDVNPALGTIGDLREVIAALHEAGISAVVDFIFNHTSNEHEWAQRCAAGDPLFDNFYYIFPDRRMPDQYDRTLREIFPDQHPGGFSQLEDGRWVWTTFNSFQWDLNYSNPWVFRAMAGEMLFLANLGVDILRMDAVAKIWKQMGTSCENLPQAHALIRAFNAVMRIAAPAVFFKSEAIVHPDQVVQYIGQDECQIGYNPLQMALLWNTLATREVNLLHQALTYRHNLPEHTAWVNYVRSHDDIGWTFADEDAAYLGISGYDHRQFLNRFFVNRFDGSFARGVPFQYNPSTGDCRVSGTAAALVGLAQDDPHAVDRIKLLYSIALSTGGLPLIYLGDEVGTLNDDDWSQDSNKSDDSRWAHRPRYNEALYAQRNDPSTAAGQIYQDLRHMIAVRQSNPRFDGGRLVTFNTNNKHIIGYIRNNALLAFGNFSEYPQTVTAHTLQAMPFKAHDLIGGKTVSLNQDLTLQPYQVMWLEIA
[1]
  increase of the efficiency of the mutant compared to ASNPwt: 130 fold
[2]; listed as DM4_P2_D12
  Glusosylation Yield to synthesize ED: 41%
[2]; listed as DM4_P2_H4
  Glusosylation Yield to synthesize ED: 42%
